The supplement of paper PMC10567573

B1: CCDC6 (parent)
chain: ASVTIQARAEQEEEFISNTLFKKI
B2: ZNF449 (parent)
chain: TLHQRTHTEERPFKCNYCGKSFRQ

Variants of: B1
Assay: protein stability index of a GFP-peptide fusion (GPS, HEK-293T) (PSI 1-6); higher = more stable
Conditions: c terminus: a fixed tail appended
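Further: lentivirally expressed fusions sorted by FACS into six bins by GFP to DsRed ratio, PSI derived from sequencing read proportions per bin multiplied by bin number.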

| Variant | protein stability index |
| --- | --- |
| ASVQIQARAEQEEEFISNTLFKKI | 3.74 |
| ASVAIQARAEQEEEFISNTLFKKI | 4.46 |
| ASVTIQARAEQLEEFISNTLFKKI | 2.07 |
| ASVTIQARAEQGEEFISNTLFKKI | 2.94 |
| ASVTIQARAEQMEEFISNTLFKKI | 1.9 |
| ASVTIQARAEQQEEFISNTLFKKI | 3.27 |
| ASVTIQARAEQEEKFISNTLFKKI | 3.2 |
| ASVTIQARAEQEETFISNTLFKKI | 2.87 |
| ASVTIQARAEQEEGFISNTLFKKI | 3.02 |
| ASVTIQARAEQEESFISNTLFKKI | 2.79 |
| ASVTIQARAEQEEVFISNTLFKKI | 2.7 |
| ASVTIQARAEQEEEFIKNTLFKKI | 4.03 |
| ASVTIQARAEQEEEFIDNTLFKKI | 4.38 |
| ASVTIQARAEQEEEFIMNTLFKKI | 3.06 |
| ASVTIQARAEQEEEFIWNTLFKKI | 2.54 |
| ASVTIQARAEQEEEFIQNTLFKKI | 3.77 |
| ASVTIQARAEQEEEFISNTLFHKI | 3.5 |
| ASVTIQARAEQEEEFISNTLFQKI | 3.7 |
| ASVTIQARAEYEEEFISNTLFKKI | 2.91 |
| ASVTIQARAEEEEEFISNTLFKKI | 4.13 |
| ASVTIQARAEHEEEFISNTLFKKI | 3.37 |
| ASVTIQARAEIEEEFISNTLFKKI | 2.39 |
| ASVTIQARAEREEEFISNTLFKKI | 2.83 |
| ASVTIQARAEMEEEFISNTLFKKI | 2.29 |
| ASVTIQARAECEEEFISNTLFKKI | 2.97 |
| ASVTIQKRAEQEEEFISNTLFKKI | 3.69 |
| ASVTIQRRAEQEEEFISNTLFKKI | 3 |

| Variant | protein stability index |
| --- | --- |
| ASVTIQPRAEQEEEFISNTLFKKI | 3.67 |
| ASVTIQHRAEQEEEFISNTLFKKI | 3.6 |
| ASVTIQWRAEQEEEFISNTLFKKI | 2.74 |
| ASVTIQARAEQEEEFCSNTLFKKI | 4.11 |
| ASVTIQARAEQEEEFTSNTLFKKI | 3.95 |
| ASVTIQARAEQEEEFVSNTLFKKI | 4.05 |
| ASVTIQARAEQEEEFSSNTLFKKI | 4.25 |
| ASVTIQARAEQEEEFYSNTLFKKI | 3.42 |
| ASVTICARAEQEEEFISNTLFKKI | 2.81 |
| ASVTIRARAEQEEEFISNTLFKKI | 3.26 |
| ASVTIEARAEQEEEFISNTLFKKI | 4.26 |
| ASVTIIARAEQEEEFISNTLFKKI | 1.97 |
| ASVTIWARAEQEEEFISNTLFKKI | 2.94 |
| ASVTINARAEQEEEFISNTLFKKI | 3.75 |
| ASVTIQARAEQEEEFISNNLFKKI | 3.12 |
| ASVTIQARAEQEEEFISNPLFKKI | 4 |
| ASVTIQARAEQEEEFISNTLFKGI | 3.21 |
| ASVTIQARAEQEEEFISNTLFKII | 2.52 |
| ASVTIQARAEQEEEFISNTLFKLI | 2.11 |
| ASVTIQARAEQEEEFISNTTFKKI | 4.64 |
| ASVTIQARAEQEEEFISNTSFKKI | 4.68 |
| ASVTIQARAEQEEEFISNTGFKKI | 4.66 |
| ASVTIQARAEQEEEFISNTAFKKI | 3.94 |
| AMVTIQARAEQEEEFISNTLFKKI | 2.81 |
| AYVTIQARAEQEEEFISNTLFKKI | 2.19 |
| ANVTIQARAEQEEEFISNTLFKKI | 3.99 |
| ATVTIQARAEQEEEFISNTLFKKI | 3.33 |

| Variant | protein stability index |
| --- | --- |
| ASVTIQARAGQEEEFISNTLFKKI | 2.38 |
| ASVTIQARALQEEEFISNTLFKKI | 2.15 |
| ASVTIQARAMQEEEFISNTLFKKI | 2.95 |
| ASVTIQARAHQEEEFISNTLFKKI | 3.25 |
| ASVTIQARAEQEEEFISNTLKKKI | 4.7 |
| ASVTIQARAEQEEEFISNTLPKKI | 4.52 |
| ASVTIQARAEQEEEFISNTLWKKI | 3.39 |
| ASVTIQARAEQEEEFISNTLNKKI | 4.42 |
| ASVTYQARAEQEEEFISNTLFKKI | 3.73 |
| ASVTRQARAEQEEEFISNTLFKKI | 4.44 |
| ASITIQARAEQEEEFISNTLFKKI | 3.09 |
| ASHTIQARAEQEEEFISNTLFKKI | 4.1 |
| ASYTIQARAEQEEEFISNTLFKKI | 3.42 |
| ASLTIQARAEQEEEFISNTLFKKI | 3.84 |
| ASGTIQARAEQEEEFISNTLFKKI | 4.44 |
| ASNTIQARAEQEEEFISNTLFKKI | 4.6 |
| ASKTIQARAEQEEEFISNTLFKKI | 4.33 |
| ASQTIQARAEQEEEFISNTLFKKI | 4.42 |
| ASDTIQARAEQEEEFISNTLFKKI | 4.89 |
| ASMTIQARAEQEEEFISNTLFKKI | 3.5 |
| ASVTIQARAEQELEFISNTLFKKI | 2.38 |
| ASVTIQARAEQEHEFISNTLFKKI | 2.29 |
| ASVTIQARAEQEEEQISNTLFKKI | 4.46 |
| ASVTIQARAEQEEEWISNTLFKKI | 2.98 |
| ASVTIQARAEQEEEMISNTLFKKI | 3.67 |
| ASVTIQARAEQEEEIISNTLFKKI | 4.18 |
| HSVTIQARAEQEEEFISNTLFKKI | 3.85 |

| Variant | protein stability index |
| --- | --- |
| LSVTIQARAEQEEEFISNTLFKKI | 2.48 |
| CSVTIQARAEQEEEFISNTLFKKI | 3.07 |
| ASVTIQARAEQEEEFISFTLFKKI | 2.27 |
| ASVTIQARAEQEEEFISDTLFKKI | 4.34 |
| ASVTIQARAEQEEEFISETLFKKI | 4.09 |
| ASVTIQARAEQEEEFISQTLFKKI | 3.42 |
| ASVTIQARAEQEEEFISGTLFKKI | 3.6 |
| ASVTIQARAEQEEEFISSTLFKKI | 3.54 |
| ASVTIQANAEQEEEFISNTLFKKI | 3.69 |
| ASVTIQAFAEQEEEFISNTLFKKI | 2.59 |
| ASVTIQAHAEQEEEFISNTLFKKI | 3.78 |
| ASVTIQAKAEQEEEFISNTLFKKI | 3.79 |
| ASVTIQAEAEQEEEFISNTLFKKI | 4.55 |
| ASVTIQAYAEQEEEFISNTLFKKI | 3.21 |
| ASVTIQATAEQEEEFISNTLFKKI | 3.58 |
| ASVTIQARWEQEEEFISNTLFKKI | 2.27 |
| ASVTIQARFEQEEEFISNTLFKKI | 2.37 |
| ASVTIQARIEQEEEFISNTLFKKI | 2.62 |
| ASVTIQARAEQEEEFISNTLFKKN | 4.71 |
| ASVTIQARAEQEEEFISNTLFKKR | 4.03 |
| ASVTIQARAEQEEEFISNTLFKKM | 3.83 |
| ASVTIQARAEQEEEFISNTLFKKW | 3.59 |
| ASVTIQARAEQEEEFISNTLFKKV | 3.71 |
| ASVTIQARAEQEEEFISNTLFKKK | 4.8 |

Variants of: B2
Assay: as above
Conditions: c terminus: a fixed tail appended

| Variant | protein stability index |
| --- | --- |
| TLLQRTHTEERPFKCNYCGKSFRQ | 1.85 |
| TLRQRTHTEERPFKCNYCGKSFRQ | 2.82 |
| TLEQRTHTEERPFKCNYCGKSFRQ | 2.87 |
| TLPQRTHTEERPFKCNYCGKSFRQ | 2.66 |
| TLVQRTHTEERPFKCNYCGKSFRQ | 1.98 |
| TLTQRTHTEERPFKCNYCGKSFRQ | 2.42 |
| TLIQRTHTEERPFKCNYCGKSFRQ | 1.99 |
| TLFQRTHTEERPFKCNYCGKSFRQ | 2.47 |
| TLGQRTHTEERPFKCNYCGKSFRQ | 2.4 |
| TLQQRTHTEERPFKCNYCGKSFRQ | 2.83 |
| TLYQRTHTEERPFKCNYCGKSFRQ | 2.15 |
| TLWQRTHTEERPFKCNYCGKSFRQ | 2.82 |
| TLDQRTHTEERPFKCNYCGKSFRQ | 2.62 |
| TLAQRTHTEERPFKCNYCGKSFRQ | 2.76 |
| TLNQRTHTEERPFKCNYCGKSFRQ | 2.62 |
| TLMQRTHTEERPFKCNYCGKSFRQ | 2.25 |
| TLKQRTHTEERPFKCNYCGKSFRQ | 2.89 |
| TLSQRTHTEERPFKCNYCGKSFRQ | 2.1 |
| TLCQRTHTEERPFKCNYCGKSFRQ | 3.27 |
| TIHQRTHTEERPFKCNYCGKSFRQ | 2.17 |
| TYHQRTHTEERPFKCNYCGKSFRQ | 2.64 |

| Variant | protein stability index |
| --- | --- |
| TSHQRTHTEERPFKCNYCGKSFRQ | 2.7 |
| TMHQRTHTEERPFKCNYCGKSFRQ | 2.58 |
| TVHQRTHTEERPFKCNYCGKSFRQ | 2.4 |
| TPHQRTHTEERPFKCNYCGKSFRQ | 2.88 |
| TEHQRTHTEERPFKCNYCGKSFRQ | 3.64 |
| THHQRTHTEERPFKCNYCGKSFRQ | 2.45 |
| TCHQRTHTEERPFKCNYCGKSFRQ | 3.15 |
| TDHQRTHTEERPFKCNYCGKSFRQ | 2.77 |
| TAHQRTHTEERPFKCNYCGKSFRQ | 2.95 |
| TQHQRTHTEERPFKCNYCGKSFRQ | 2.41 |
| TNHQRTHTEERPFKCNYCGKSFRQ | 2.59 |
| TKHQRTHTEERPFKCNYCGKSFRQ | 2.74 |
| TRHQRTHTEERPFKCNYCGKSFRQ | 2.75 |
| TFHQRTHTEERPFKCNYCGKSFRQ | 3.22 |
| TGHQRTHTEERPFKCNYCGKSFRQ | 3.08 |
| TWHQRTHTEERPFKCNYCGKSFRQ | 1.83 |
| TTHQRTHTEERPFKCNYCGKSFRQ | 2.27 |
| NLHQRTHTEERPFKCNYCGKSFRQ | 2.87 |
| SLHQRTHTEERPFKCNYCGKSFRQ | 3.59 |
| QLHQRTHTEERPFKCNYCGKSFRQ | 2.19 |
| LLHQRTHTEERPFKCNYCGKSFRQ | 2.04 |

| Variant | protein stability index |
| --- | --- |
| RLHQRTHTEERPFKCNYCGKSFRQ | 2.02 |
| ALHQRTHTEERPFKCNYCGKSFRQ | 2.12 |
| YLHQRTHTEERPFKCNYCGKSFRQ | 2.01 |
| MLHQRTHTEERPFKCNYCGKSFRQ | 2.39 |
| ILHQRTHTEERPFKCNYCGKSFRQ | 2.21 |
| DLHQRTHTEERPFKCNYCGKSFRQ | 2.46 |
| GLHQRTHTEERPFKCNYCGKSFRQ | 2.89 |
| VLHQRTHTEERPFKCNYCGKSFRQ | 3.17 |
| CLHQRTHTEERPFKCNYCGKSFRQ | 3.64 |
| ELHQRTHTEERPFKCNYCGKSFRQ | 2.64 |
| HLHQRTHTEERPFKCNYCGKSFRQ | 2.66 |
| FLHQRTHTEERPFKCNYCGKSFRQ | 2.08 |
| PLHQRTHTEERPFKCNYCGKSFRQ | 2.56 |
| WLHQRTHTEERPFKCNYCGKSFRQ | 2.01 |
| KLHQRTHTEERPFKCNYCGKSFRQ | 3.28 |
| TLHWRTHTEERPFKCNYCGKSFRQ | 2.24 |
| TLHKRTHTEERPFKCNYCGKSFRQ | 2.94 |
| TLHIRTHTEERPFKCNYCGKSFRQ | 1.71 |
| TLHYRTHTEERPFKCNYCGKSFRQ | 2.03 |
| TLHHRTHTEERPFKCNYCGKSFRQ | 1.73 |
| TLHPRTHTEERPFKCNYCGKSFRQ | 2.92 |

| Variant | protein stability index |
| --- | --- |
| TLHARTHTEERPFKCNYCGKSFRQ | 2.08 |
| TLHTRTHTEERPFKCNYCGKSFRQ | 2.67 |
| TLHCRTHTEERPFKCNYCGKSFRQ | 3.33 |
| TLHDRTHTEERPFKCNYCGKSFRQ | 2.41 |
| TLHRRTHTEERPFKCNYCGKSFRQ | 3.24 |
| TLHMRTHTEERPFKCNYCGKSFRQ | 2.08 |
| TLHNRTHTEERPFKCNYCGKSFRQ | 2.75 |
| TLHGRTHTEERPFKCNYCGKSFRQ | 2.12 |
| TLHSRTHTEERPFKCNYCGKSFRQ | 2.12 |
| TLHERTHTEERPFKCNYCGKSFRQ | 2.85 |
| TLHFRTHTEERPFKCNYCGKSFRQ | 2.42 |
| TLHVRTHTEERPFKCNYCGKSFRQ | 2.38 |
| TLHLRTHTEERPFKCNYCGKSFRQ | 1.9 |
| TLHQFTHTEERPFKCNYCGKSFRQ | 1.78 |
| TLHQATHTEERPFKCNYCGKSFRQ | 2.44 |
| TLHQETHTEERPFKCNYCGKSFRQ | 3.05 |
| TLHQDTHTEERPFKCNYCGKSFRQ | 2.91 |
| TLHQGTHTEERPFKCNYCGKSFRQ | 1.83 |
| TLHQCTHTEERPFKCNYCGKSFRQ | 4.17 |
| TLHQHTHTEERPFKCNYCGKSFRQ | 2.73 |
